Where no end group is shown, it is not given here.
T1: Fibrinogen fragment D (human, UniProt P02671 130-216; P02675 164-491; P02679 114-432, limits assumed)
T1 construct: domain: Fragment D (or D-domain); Made by plasmin digestion of human fibrinogen and purified on GPRPAA beads; holds the C-terminal polymerization pockets without the N-terminal knobs; immobilised by amine coupling on the SPR chip; also called D-domain
T1 sequence (looked up) 1: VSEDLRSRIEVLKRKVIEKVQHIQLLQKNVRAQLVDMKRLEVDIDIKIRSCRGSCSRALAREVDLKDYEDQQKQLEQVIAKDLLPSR
T1 sequence (looked up) 2: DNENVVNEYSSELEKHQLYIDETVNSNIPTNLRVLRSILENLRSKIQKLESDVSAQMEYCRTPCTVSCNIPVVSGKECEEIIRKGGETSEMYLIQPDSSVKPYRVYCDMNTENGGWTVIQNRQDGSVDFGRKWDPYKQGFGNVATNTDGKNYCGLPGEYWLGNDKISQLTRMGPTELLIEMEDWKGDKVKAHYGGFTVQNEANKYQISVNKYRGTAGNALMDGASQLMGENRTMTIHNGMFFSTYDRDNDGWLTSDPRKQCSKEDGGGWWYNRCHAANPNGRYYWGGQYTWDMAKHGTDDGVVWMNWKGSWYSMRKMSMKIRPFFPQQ
T1 sequence (looked up) 3: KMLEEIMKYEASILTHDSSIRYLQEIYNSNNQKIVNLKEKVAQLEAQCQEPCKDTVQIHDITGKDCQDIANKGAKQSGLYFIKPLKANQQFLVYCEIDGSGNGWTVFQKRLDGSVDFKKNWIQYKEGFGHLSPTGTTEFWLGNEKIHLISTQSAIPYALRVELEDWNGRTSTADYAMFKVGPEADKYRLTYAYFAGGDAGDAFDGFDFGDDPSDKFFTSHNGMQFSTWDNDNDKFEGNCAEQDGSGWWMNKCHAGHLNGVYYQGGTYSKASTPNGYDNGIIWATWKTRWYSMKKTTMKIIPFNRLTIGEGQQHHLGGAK

B1: GPRP tetrapeptide (peptide)
peptide: GPRP
notes: Synthetic (Genscript); also called A-knob tetrapeptide mimetic; soluble GPRP peptide
B2: GPRV tetrapeptide (peptide)
peptide: GPRV
B3: GPRPFPAC (peptide)
peptide: GPRPFPAC
notes: Synthetic (GenScript); also called knob 'A' peptide
B4: GPRPAAC (peptide)
peptide: GPRPAAC
notes: Synthetic (GenScript); kept reduced with immobilised TCEP; also called gold standard GPRP mimic; knob 'A' peptide
B5: GPSPAAC (peptide)
peptide: GPSPAAC
notes: Synthetic (GenScript); negative control; also called negative control peptide
B6: GPRPPERC (peptide)
peptide: GPRPPERC
notes: as for B3
B7: GPRVVAAC (peptide)
peptide: GPRVVAAC
notes: as for B3
B8: GPRVVERC (peptide)
peptide: GPRVVERC
notes: as for B3
B9: GPRPAA peptide covalently linked to a polymeric resin (peptide)
peptide: GPRPAA
modifications: not fully specified
notes: also called GPRPAA-beads

Tests used:
Fibrinogen fragment D [1] = biological target: T1, Fibrinogen fragment D; assay: SPR, fragment D immobilised, competitor soluble GPRP peptide in the analyte solution
Fibrinogen fragment D [2] = biological target: T1, Fibrinogen fragment D; assay: SPR (Biacore 2000), fragment D immobilised, equilibrium response fit to a single-site model
Fibrinogen fragment D [3] = biological target: T1, Fibrinogen fragment D; assay: SPR competition with GPRP-FnIII9-10 on immobilised fragment D
Human fibrinogen (human) = Human fibrinogen (human) (UniProt P02671); assay: competition ELISA: soluble peptide added to fibrinogen, binding of fibrinogen to immobilised GPRP-FnIII9-10-C is measured; signal normalised to the GSPE peptide
Fibrinogen fragment D [4] = biological target: T1, Fibrinogen fragment D; assay: SPR, fragment D immobilised, Langmuir 1:1 model
Procedure: (§1) Upon stabilization of the baseline signal, kinetic binding experiments were run in duplicate with the peptide variants as the flow analytes. Five varying concentrations for each peptide (0.94 μM to 150 μM) were flowed at 25 μL/min for 4 min immediately followed by a 10 min dissociation phase. Between each run, the surface was regenerated with 1M sodium bromide and 50 mM sodium acetate (pH 6.0). SPR experiments were performed three times with varying peptide injection order to rule out binding trends associated with injection sequence. Peptide solutions were incubated with tris(2-carboxyethyl)phosphine (TCEP) immobilized on agarose beads (Thermo Fisher Scientific, Inc; Rockland, Ill.) to ensure reduction of any disulfide bonds between C-terminal cysteines.
(§2) To investigate the dynamic binding profile between the fibrinogen/fibrin holes and knob peptide variants, SPR was employed. Binding interactions were evaluated by flowing the knob peptides over an immobilized surface of fragment D (FIG. 8). By immobilizing fragment D as opposed to full-length fibrinogen, the kinetic binding model was simplified to a heterogeneous 2-site ligand model (i.e. one hole ‘a’ and hole ‘b’ per ligand) as opposed to a 4-site model (i.e. two of each hole ‘a’ and hole ‘b’ per ligand). The data was modeled using both a Langmuir 1:1 model and a heterogeneous ligand model to compare previously established binding affinities to a more dynamic two-site model. However, the complexity of the heterogeneous model fitted parameters for sites 1 and 2 (i.e. maximal binding response, kₐ, and kd) limits direct designation or assignment of holes ‘a’ or ‘b’ to site 1 or 2. […] All peptide SPR data was fit except for the negative control peptide, GPSPAAC (SEQ ID NO:9), where minimal binding response was observed.

Fibrinogen fragment D [5] = biological target: T1, Fibrinogen fragment D; assay: SPR, heterogeneous ligand model, site 1 (KD1 = kd/ka)
Procedure: as §1, §2

Fibrinogen fragment D [6] = biological target: T1, Fibrinogen fragment D; assay: SPR, heterogeneous ligand model, site 2 (KD2 = kd/ka)
Procedure: as §1, §2

Fibrinogen fragment D [7] = biological target: T1, Fibrinogen fragment D; assay: SPR (Biacore 2000), fragment D immobilised, Langmuir 1:1 model
Procedure: as §1, §2

Fibrinogen fragment D [8] = biological target: T1, Fibrinogen fragment D; assay: SPR, fragment D immobilised, heterogeneous ligand model, site 1
Procedure: as §1, §2

Fibrinogen fragment D [9] = biological target: T1, Fibrinogen fragment D; assay: SPR, fragment D immobilised, heterogeneous ligand model, site 2
Procedure: as §1, §2

Fibrinogen fragment D [10] = biological target: T1, Fibrinogen fragment D; assay: SPR, fragment D immobilised, heterogeneous ligand model, site 1 (ka1)
Procedure: as §1, §2

Fibrinogen fragment D [11] = biological target: T1, Fibrinogen fragment D; assay: SPR, fragment D immobilised, heterogeneous ligand model, site 1 (kd1)
Procedure: as §1, §2

Fibrinogen fragment D [12] = biological target: T1, Fibrinogen fragment D; assay: SPR, fragment D immobilised, heterogeneous ligand model, site 2 (ka2)
Procedure: as §1
To investigate the dynamic binding profile between the fibrinogen/fibrin holes and knob peptide variants, SPR was employed. Binding interactions were evaluated by flowing the knob peptides over an immobilized surface of fragment D (FIG. 8). By immobilizing fragment D as opposed to full-length fibrinogen, the kinetic binding model was simplified to a heterogeneous 2-site ligand model (i.e. one hole ‘a’ and hole ‘b’ per ligand) as opposed to a 4-site model (i.e. two of each hole ‘a’ and hole ‘b’ per ligand). […]

Fibrinogen fragment D [13] = biological target: T1, Fibrinogen fragment D; assay: SPR, fragment D immobilised, heterogeneous ligand model, site 2 (kd2)
Procedure: as §1, §2

Fibrinogen fragment D [14] = biological target: T1, Fibrinogen fragment D; assay: SPR maximal binding response against peptide concentration, fibrinogen fragment D immobilised
Procedure: as §1
Prior to analysis, all sensorgrams were inspected for abnormalities (i.e. baseline drift, air spikes, or irregular deviations) and excluded. Reference cell responses were subtracted from corresponding active response curves. […] The resulting curves were then analyzed and fitted to the kinetic models. Kinetic modeling and simulations were performed with ClampXP software using the Langmuir 1:1 model or the heterogeneous ligand model; globally fitted parameters were determined for each kinetic data set per peptide. Equilibrium binding constants were calculated from fitted kinetic constants.

Fibrinogen fragment D [15] = biological target: T1, Fibrinogen fragment D; assay: affinity purification from plasmin-digested fibrinogen, elution with 1 M sodium bromide
Procedure: Human fibrinogen (# FIB3, Enzyme Research Laboratories, South Bend, Ind.) at 2 mg/mL was digested with 0.1 U/mL human plasmin (Enzyme Research Laboratories) in HEPES+Ca buffer (150 mM NaCl, 5 mM CaCl₂, 25 mM HEPES, pH 7.4) overnight at room temperature. Fragment D (or D-domain) was isolated as previously described, with slight modifications, using a polymeric resin with covalently linked GPRPAA (SEQ ID NO:10) peptide (Kostelansky M S, et al. Biochemistry 2002, 41(40):12124-12132). Briefly, the plasmin-digested fibrinogen and GPRPAA-beads were incubated for 30 min, with occasional agitation. The unbound protein fragments were removed with exhaustive washing with HEPES+Ca buffer. Fragment D was eluted using 1 M sodium bromide, 50 mM sodium acetate, pH 5.3 and exchanged back into HEPES+Ca buffer using a centrifugal filter with MWCO 10,000.

Molecule | koff (Fibrinogen fragment D [4]) [s⁻¹] | kon (Fibrinogen fragment D [4]) [M⁻¹ s⁻¹] | Kd (Fibrinogen fragment D [5]) [µM] | Kd (Fibrinogen fragment D [6]) [µM] | Bmax (maximal binding capacity of fragment D) (Fibrinogen fragment D [7]) [RU] | Bmax (maximal binding capacity of fragment D, site 1) (Fibrinogen fragment D [8]) [RU] | B*max (maximal binding capacity of fragment D, site 2) (Fibrinogen fragment D [9]) [RU] | kon (Fibrinogen fragment D [10]) [M⁻¹ s⁻¹] | koff (Fibrinogen fragment D [11]) [s⁻¹] | koff (Fibrinogen fragment D [13]) [s⁻¹] | other results
GPRP-FnIII9-10 (from UniProt P02751 1448-1631) | – | – | – | – | – | – | – | – | – | – | KD in the presence of a 10-molar excess of soluble GPRP peptide (Fibrinogen fragment D [1]): 43 µM; Kd (Fibrinogen fragment D [2]): 3 µM
GPRV-FnIII9-10 (from UniProt P02751 1448-1631) | – | – | – | – | – | – | – | – | – | – | Kd (Fibrinogen fragment D [2]): 125 µM
B1 | – | – | – | – | – | – | – | – | – | – | binding result (Fibrinogen fragment D [3]): binds
B2 | – | – | – | – | – | – | – | – | – | – | IC50 (read off the curve) (Human fibrinogen (human)): 200 µg/mL
B3 | 0.00727 | 12500 | 3.73 | 1.08 | 17.7 | 17.6 | 11.3 | 21700 | 0.0811 | 0.00196 | kon (Fibrinogen fragment D [12]): 1810 M⁻¹ s⁻¹
B4 | 0.0117 | 1140 | 4.53 | 8.52 | 21.5 | 19.4 | 5.91 | 2840 | 0.0128 | 0.00895 | –
B5 | – | – | – | – | – | – | – | – | – | – | binding result (Fibrinogen fragment D [14]): no binding (tested: just below 10^-4 M (last point))
B6 | 0.00992 | 1290 | 18.2 | 2.93 | 19.2 | 14.6 | 5.92 | 3220 | 0.0587 | 0.00296 | –
B7 | 0.0107 | – | 48.5 | 25 | 18.9 | 8.36 | 13.5 | 620 | 0.0301 | 0.001 | –
B8 | 0.0234 | 280 | 53.9 | 15.7 | 16.3 | 25.6 | 10.3 | – | 0.0577 | 0.00407 | kon (Fibrinogen fragment D [12]): 260 M⁻¹ s⁻¹
B9 | – | – | – | – | – | – | – | – | – | – | binding result (Fibrinogen fragment D [15]): binds

— patent publication US20120114682A1 (GEORGIA TECH RESEARCH, published 2012)
